Laboratory results: the RNAGym collection of RNA variant scans (doi:10.7554/elife.80360)

B1: CPEB3 Ribozyme (parent)
chain: GGGGGCCACAGCAGAAGCGUUCACGUCGCGGCCCCUGUCAGAUUCUGGUGAAUCUGCGAAUUCUGCUGU

Variants of: B1
Experiment: self-cleavage, relative activity (ratio to wild type); higher = more cleavage; co-transcriptional

Variant	self-cleavage
GGGGGCCACAGCAGAAGCGUUCACGUCUCGGCCCCUGUCAGGUUCUGGUGAAUCUGCGAAUUCUGCUGU [G28U A42G]	0.112
GGGGGCCACAGCAGAAGCGUUCACGUCUCGGCCCCUGUCAGUUUCUGGUGAAUCUGCGAAUUCUGCUGU [G28U A42U]	0.149
GGGGGCCACAGCAGAAGCGUUCACGUCUCGGCCCCUGUCAGAUUCUGGUGCAUCUGCGAAUUCUGCUGU [G28U A51C]	0.157
GGGGGCCACAGCAGAAGCGUUCACGUCUCGGCCCCUGUCAGAUUCUGGUGGAUCUGCGAAUUCUGCUGU [G28U A51G]	0.196
GGGGGCCACAGCAGAAGCGUUCACGUCUCGGCCCCUGUCAGAUUCUGGUGACUCUGCGAAUUCUGCUGU [G28U A52C]	0.132
GGGGGCCACAGCAGAAGCGUUCACGUCUCGGCCCCUGUCAGAUUCUGGUGAUUCUGCGAAUUCUGCUGU [G28U A52U]	0.198
GGGGGCCACAGCAGAAGCGUUCACGUCUCGGCCCCUGUCAGAUUCUGGUGAAUCUGCGGAUUCUGCUGU [G28U A59G]	0.23
GGGGGCCACAGCAGAAGCGUUCACGUCUCGGCCCCUGUCAGAUUCUGGUGAAUCUGCGUAUUCUGCUGU [G28U A59U]	0.16
GGGGGCCACAGCAGAAGCGUUCACGUCUCGGCCCCUGUCAGAUUCUGGUGAAUCUGCGACUUCUGCUGU [G28U A60C]	0.226
GGGGGCCACAGCAGAAGCGUUCACGUCUCGGCCCCUGUCAGAUUCUGGUGAAUCUGCGAGUUCUGCUGU [G28U A60G]	0.214
GGGGGCCACAGCAGAAGCGUUCACGUCUAGGCCCCUGUCAGAUUCUGGUGAAUCUGCGAAUUCUGCUGU [G28U C29A]	0.142
GGGGGCCACAGCAGAAGCGUUCACGUCUUGGCCCCUGUCAGAUUCUGGUGAAUCUGCGAAUUCUGCUGU [G28U C29U]	0.174
GGGGGCCACAGCAGAAGCGUUCACGUCUCGGACCCUGUCAGAUUCUGGUGAAUCUGCGAAUUCUGCUGU [G28U C32A]	0.236
GGGGGCCACAGCAGAAGCGUUCACGUCUCGGCACCUGUCAGAUUCUGGUGAAUCUGCGAAUUCUGCUGU [G28U C33A]	0.21
GGGGGCCACAGCAGAAGCGUUCACGUCUCGGCGCCUGUCAGAUUCUGGUGAAUCUGCGAAUUCUGCUGU [G28U C33G]	0.196
GGGGGCCACAGCAGAAGCGUUCACGUCUCGGCCACUGUCAGAUUCUGGUGAAUCUGCGAAUUCUGCUGU [G28U C34A]	0.181
GGGGGCCACAGCAGAAGCGUUCACGUCUCGGCCCAUGUCAGAUUCUGGUGAAUCUGCGAAUUCUGCUGU [G28U C35A]	0.172
GGGGGCCACAGCAGAAGCGUUCACGUCUCGGCCCGUGUCAGAUUCUGGUGAAUCUGCGAAUUCUGCUGU [G28U C35G]	0.14
GGGGGCCACAGCAGAAGCGUUCACGUCUCGGCCCCUGUAAGAUUCUGGUGAAUCUGCGAAUUCUGCUGU [G28U C39A]	0.103
GGGGGCCACAGCAGAAGCGUUCACGUCUCGGCCCCUGUGAGAUUCUGGUGAAUCUGCGAAUUCUGCUGU [G28U C39G]	0.206

Variant	self-cleavage
GGGGGCCACAGCAGAAGCGUUCACGUCUCGGCCCCUGUCAGAUUAUGGUGAAUCUGCGAAUUCUGCUGU [G28U C45A]	0.189
GGGGGCCACAGCAGAAGCGUUCACGUCUCGGCCCCUGUCAGAUUUUGGUGAAUCUGCGAAUUCUGCUGU [G28U C45U]	0.168
GGGGGCCACAGCAGAAGCGUUCACGUCUCGGCCCCUGUCAGAUUCUGGUGAAUAUGCGAAUUCUGCUGU [G28U C54A]	0.144
GGGGGCCACAGCAGAAGCGUUCACGUCUCGGCCCCUGUCAGAUUCUGGUGAAUGUGCGAAUUCUGCUGU [G28U C54G]	0.158
GGGGGCCACAGCAGAAGCGUUCACGUCUCGGCCCCUGUCAGAUUCUGGUGAAUCUGUGAAUUCUGCUGU [G28U C57U]	0.213
GGGGGCCACAGCAGAAGCGUUCACGUCUCGGCCCCUGUCAGAUUCUGGUGAAUCUGCGAAUUAUGCUGU [G28U C63A]	0.189
GGGGGCCACAGCAGAAGCGUUCACGUCUCGGCCCCUGUCAGAUUCUGGUGAAUCUGCGAAUUGUGCUGU [G28U C63G]	0.254
GGGGGCCACAGCAGAAGCGUUCACGUCUCGGCCCCUGUCAGAUUCUGGUGAAUCUGCGAAUUUUGCUGU [G28U C63U]	0.187
GGGGGCCACAGCAGAAGCGUUCACGUCUCGGCCCCUGUCAGAUUCUGGUGAAUCUGCGAAUUCUGAUGU [G28U C66A]	0.153
GGGGGCCACAGCAGAAGCGUUCACGUCUCGGCCCCUGUCAGAUUCUGGUGAAUCUGCGAAUUCUGGUGU [G28U C66G]	0.16
GGGGGCCACAGCAGAAGCGUUCACGUCUCGGCCCCUGUCAGAUUCUGGUGAAUCUGCGAAUUCUGUUGU [G28U C66U]	0.168
GGGGGCCACAGCAGAAGCGUUCACGUCUCAGCCCCUGUCAGAUUCUGGUGAAUCUGCGAAUUCUGCUGU [G28U G30A]	0.14
GGGGGCCACAGCAGAAGCGUUCACGUCUCCGCCCCUGUCAGAUUCUGGUGAAUCUGCGAAUUCUGCUGU [G28U G30C]	0.166
GGGGGCCACAGCAGAAGCGUUCACGUCUCUGCCCCUGUCAGAUUCUGGUGAAUCUGCGAAUUCUGCUGU [G28U G30U]	0.183
GGGGGCCACAGCAGAAGCGUUCACGUCUCGCCCCCUGUCAGAUUCUGGUGAAUCUGCGAAUUCUGCUGU [G28U G31C]	0.141
GGGGGCCACAGCAGAAGCGUUCACGUCUCGUCCCCUGUCAGAUUCUGGUGAAUCUGCGAAUUCUGCUGU [G28U G31U]	0.171
GGGGGCCACAGCAGAAGCGUUCACGUCUCGGCCCCUCUCAGAUUCUGGUGAAUCUGCGAAUUCUGCUGU [G28U G37C]	0.172
GGGGGCCACAGCAGAAGCGUUCACGUCUCGGCCCCUUUCAGAUUCUGGUGAAUCUGCGAAUUCUGCUGU [G28U G37U]	0.166
GGGGGCCACAGCAGAAGCGUUCACGUCUCGGCCCCUGUCAAAUUCUGGUGAAUCUGCGAAUUCUGCUGU [G28U G41A]	0.166
